The results in this text go back to the DeepSol protein solubility set.

A short description of the series: soluble on expression in E. coli; label from the status in PepcDB or PDB records.
With “MSLIPDVSQALAWLEKHPQALKGIQRGLERETLRVNADGTLATTGHPEALGSALTHKWITTDFAEALLEFITPVDGDIQHMLTFMRDLHRYTARKLGDERMWPLSMPCYIAEGQDIELAQYGTSNTGRFKTLYREGLKNRYGALMQTISGVHYNFSLPMAFWQAKCGVTEGGSGKRKISAGYFRLIRNYYRFGWVIPYLFGASPAICSSFLQGKPTTLPFEKTDCGMYYLPYATSLRLSDLGYTNKSQSNLGITFNDLHEYVAGLKRAIKTPSEEYARIGVEKDGKRLQINSNVLQIENELYAPIRPKRVTRSGESPSDALLRGGIEYIEVRSLDINPFSPIGVDEQQVRFLDLFMVWCVLADAPEMSSDELLCTRTNWNRVILERRKPGLTLGIGCETAQFPLPKVGKDLFRDLKRVAQTLDSIHGGEEYQKVCDELVACFDNPELTFSARILRSMIDEGIGGTGKAFGEAYRNLLREEPLEILQEEEFIAERDASVRRQQEIEAADTEPFAAWLAKHAEGGSHHHHHH”, the “soluble on expression in E. coli” value is “soluble”.

For the sequence “MSLIQDNEISSSTKTRIKALKFFSRKMLSELNFGGYRSIFKGLGLEFHEFRPYEDSDDARFIDWNVSSKADSIFSKVFKEDRGMNLHLLVDNSLSMSLGDKVNKKDVQDLLVSIFAHMAFFNNDKIGVTFFSSGTDKFIPSSKGHSHLGLILSETINRNLKPGSSLAYIFKNTAEYYKKRSLVIIISDFKANAYFKSLNVLSKRHNVIAIRISDFFDENFPKIGTLICEDIETGENFLVSGFSKSTLSGYKNYWTLDKIKWKKECIKKNISFIEIDTKEDVFKKLKILLKKGQEGHHHHHH”, the “soluble on expression in E. coli” value is given as “not soluble”.

Take “MSLIRDRTEPVMSAKLPPVEPVSPTNPRSSASPGSPDRSGLPVVVSVVGLVHTPGLVTLAPGARIADALQAAGGAVDGADTVGLNMARQLGDGEQIVVGLAPPSGQPRVLGSSVGAGTPGPAGTSGTATTGPKTAPKTAEVLDLNTATVEQLDALPGIGPVTAAAIVAWRQRNGRFTSVDQLADVDGIGPARLDKRRNLVRVEGHHHHHH”: the “soluble on expression in E. coli” value is on record as “soluble”.

Take “MSLISIVVLYYSRHGSTQALARQIARGVESVEGCQALLRTVAELDGTASNSDPYLSLDELKQCDGLALGSPVWFGNMAAPLKHFWDQTTPLWLSGALIDKPACVFTSSSTLHGGQETTQQSMMLPLLHHGMLILGIPYSEPALHTTQSGGTPYEGHHHHHH”: the “soluble on expression in E. coli” value is on record as “not soluble”.

In the case of “MSLISIVVLYYSRHGSTQALARQIARGVESVEGCQALLRTVAELDGTASNSDPYLSLDELKQCDGLALGSPVWFGNMAAPLKHFWDQTTPLWLSGALIDKPACVFTSSSTLHGGQETTQQSMMLPLLHHGMLILGIPYSEPALHTTQSGGTPYGASHVHQQKTLSSEEAELARQLGKRLAHVAKQLKGEGGSHHHHHH”, the “soluble on expression in E. coli” value is listed as “soluble”.

Regarding “MSLITACPRPCAWRSYALGLGLLPLAAQAEFLADSSAHLDLRNFYQLRDYRQHDAPQSQAGNWSQGFVLRLQSGFTGGPLGFGLDATGLLGVKLDSGRGRSNDGTLPFGANSKEPVDDYSHLGLTAKLRYSQTQLQVGILMPQLPVAFRDDVRLLPQTFDGALLTSSEIEGLTLTAGQLWKSRTRESAGSDDMYIMGRDKAHASDEFNLAGATYAFTPRLSASYYYGQLKDIYRQHYLGLLHTLPLGEGLSLRSDLRYFDSGEDGAAISGPVDNRNLNAMLTLRAGAHAFGIGVQKMIGNDAFPVLNGYTTPYVANLMAYQTFTRPQEKSWQLRYDYDFAGLGLPGLNLMTRYVQGRDIDRGAGRADDSEWERNTDLSYVIQSGPLKSVALKWRNITYRSRYGADLDENRFIVNYTLKLWEGHHHHHH”, the “soluble on expression in E. coli” value was “soluble”.

On to “MSLIVTLPEPTGPYEIGVTNFHWVDPDREEVEGVNGNRELMVRIWYPAELTEGGLKAPYAFDPSYTELVSKELPYYYKALLYSVIQTETHSFANVPVADHGAPYPVLILSPGYGNSNFMYTSQAETLASHGYIVCSIEHTYYTGLPTLFPDGRIVYEQIDLEDGRDLDEEITVWVDDVQFVLDQLQKWNESDPQNLLNGRLDMDRVGMLGHSFGGATTAQVMHQDPRIRAGVNMDGFLFGSLIEEGLDYPFMYMSGVEEVSMEGPDGKKVEEAELPEEFREFIADDKRRKEGALKNNGLYVVIENAEHESFSDWMLYSPLLLDRDLPMLDQINKTLLDFFDEHLKEGHHHHHH”, for which the “soluble on expression in E. coli” value is on record as “soluble”.

As to “MSLIYPEKNREVLVQLMNQSKNASLIQAWIDDGNTTIAPEKIQVTFILTPPVSRVAGGSGQQLKIRKMPNNLPHNKESLFYLNVLDIPPNNPQNAGKNKIKLALQNRIKLLWRPSGIAPVDKKSLSQLNIKKKNNAISINNETANWITVTTIKAQNVKVNNESILLPPFSHNDITLKNNHASEYELTVVDDYGNNIHSKIAAREGHHHHHH”, the “soluble on expression in E. coli” value is reported as “not soluble”.

In the case of “MSLKAIKNGTILTGTGETIKQGTLLIQDGKVLEVGQRVDTPANAKLIDATGKYVTPGLIDVHTHIGVFSEGLGRTGHDFNETTAAATPYIRAIDGIYPFDQGFEDARQSGVTTVQIMPGSANVIGGEMVTVKTAGTVVDEMIVRAPSGMKAAFGENPKNVHGGKGKLPATRMGVAALFRQQLYQAQDYLKRFEKGELEKRDLGMEQLAKVLRKEIPLRVHAHRADDIATVLRMVDEFDLEATIEHCTEGHLIADHIAKYNVKVSVGPTMTSRTKQELVNKGWHTLIELEKHGIPFSITTDHPVVTINHLVTSAIQAVKAGLSEQSAFQAITLRAAEHIGVEQQVGSLEKGKDGDFVIWSDHPFTATAQVEATYINGKCVTGSHCEGHHHHHH”, the “soluble on expression in E. coli” value was “soluble”.

For “MSLKAIWHGGFIYTMLEEGDRTEAVYVEDGVIKGTGSYERLKEKYGSPETEEISLNGAVMFPGFVDSHLHLIGHGEKQLQLDLSALTSKDSILQAAKERERQLPKNDWLIGEGWNENQFETPDYLTKHDLDRLFPDRPVLLKRICRHAIAVNSAALQAAGISRNTPDPDGGVIVKDANGEPTGLLFDKAQDLILKAVPPVSQHYVDEALTAAIKDCWTKGLTGGHSEDLSYYGDVSVPMKAYEKAAAGGKYPFRCHLLVHHEAVDRWEQLEKLSGPYVEFGAMKIFADGALGGRTALLKEPYQDDPSTNGVQVHDDETLGRLIRKAREKGMEVAVHAIGDLAFEKVLNAIEKHPPKNGRHDRLIHAQVLDNELIERAARMPIALDLQPHFVASDFPWVIDRLGKDRMKTAFAWKTLISKGILCAGGSDAPIEPVDPLLGIQSAVLRKSSHEQNGPSYNESECLPVYEAIKLYTEGSAGIIYKEKSRGKIAEGYDADFTVLSGDPFAIDPAQLHLLEIKKTVINGQIVYEKSEGHHHHHH”, the “soluble on expression in E. coli” value is on record as “soluble”.

For “MSLKAVIGISASEVTIQSGPFMGEPRTYVNAAYVDSVLKNGGIPLVIPFTAGGEEMAFKQLDLVDGLILSGGHDLNPHLYGEEIDQKSGETWPDRDAFDMALLKRAEETGKPVLGICRGAQIINVAHGGSMWQDLSLRPGNTLKHMQAIRPDVGTHVVKIKSGTTLKKIMGKSSLMTNSFHHQLIKEVAPDLTESASASDGVTEALESTDGKVIAVQWHPEEMHANPAPEAAIMNRLFKYLIDKAEEEKEGHHHHHH”, the “soluble on expression in E. coli” value was “soluble”.

On to “MSLKAYKTDGTHFRAITRQTLLGADEDERALGHQTRYFEIAPGGYSSLERHQHTHTVMILRGQGELILGDALHRIGRHDCIYIAPQTFHQFHASGDEPLGFLCIVDRERDRPREGHHHHHH”, for which the “soluble on expression in E. coli” value is on record as “not soluble”.

Take “MSLKEAIVERIVNKLNENQKEKIGVELPSGKRIPEFPVSHLIRFKTWKSLDYVLKDPEMGFGEGYMNGDIEVEGDLEEVIKRGMTLFKDTRKFEKLFGILRHVPLFRTIRDERNVKHHYDLGNDFYRLWLDKSMTYSCAFFEDPSMSIDEAQSLKRRIIYEKLQLKEGDTLLDIGCGWGSIILESAELYNVKSVGITLSDNQYEYVKEEIKKRGLQDKVEVYKLHYVDLPKLGRKFNKVVSVGMFEHVGKENYETFFNTVYKVMEEGGLFLLHTIGKLHPDTQSRWIRKYIFPGGYLPSISEIVESFRDMDFTLIDFDNWRMHYYWTLKKWKERFYENLDKIRNMFDDRFIRMWELYLTASAVSFLIGSNYVFQILLSKGVKDDYPVIKREFSGVLFKEGHHHHHH”: the “soluble on expression in E. coli” value is given as “not soluble”.

For “MSLKFIVIKIGGSTLSDMHPSIINNIKHLRSNNIYPIIVHGGGPFINEALSNQQIEPHFVNGLRVTDKATMTITKHTLIADVNTALVAQFNQHQCSAIGLCGLDAQLFEITSFDQQYGYVGVPTALNKDALQYLCTKFVPIINSIGFNNHDGEFYNINADTLAYFIASSLKAPIYVLSNIAGVLINDVVIPQLPLVDIHQYIEHGDIYGGMIPKVLDAKNAIENGCPKVIIASGNKPNIIESIYNNDFVGTTILNSEGHHHHHH”, the “soluble on expression in E. coli” value is recorded as “soluble”.
